Test: yeast display, Sf9 membrane polyspecificity reagent, FACS + sequencing; frameworks hold sequencing errors
How it was run: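 Polyreactivity labels are assigned by the sorting gate from which each nanobody was recovered. The gates were low and high (top ~1%), set on anti-HA fluorescence for expression and streptavidin fluorescence for reagent binding. Before sorting, galactose-induced (36–48 hours) yeast display cells were stained for 1 hour at 4 °C with 10% biotinylated, detergent-solubilized Sf9 membrane reagent.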

Sequence	polyreactivity (PSR sort gate)
QLQLVESGGGLVQAGGSLRLSSAASGIIRVNAMGWNIQAPGKQRELVATITNVGSTNYADSVKGRFTISRDNAKNTVYLQMNSLKPEDTAVYYCAAEYDGPFYSFYPEQRYYWGQGTQVTVSS	low polyreactivity
QVQLVESGGGLVQAGGSLRLSCAASGLTFSLYAMGWYGQAPGKEREFVAAISSSGGSTYYADSVKGRFTISRDNAKNTVYLQMNSLKPEDTAVYYCNVRRKSRMGYWGQGTQVTVSS	high polyreactivity
QVQLVESGGGLVQAGGSLRISCAASGFIFRYYAMGWYRQAPGKERELVARITNGGSTKYSDSVKGRFTISRDNAKTTVYLQMNSLKPEDTAVYYCNTDGLVRNGPFFSWGQGTQVTVSS	low polyreactivity
QVQLVESGGGLVQAGGSLRLSCAASGRTLLKYAMGWYRQATGKEREFVAAITRSGSSTYYADSVKGRFTISRDNAKNTVYLQMNSLKPEDTAVYYCAARLYRVTLDYWGQGTQVTVSS	low polyreactivity
QVQLQESGGGQVQAGGSLRLSCAASGYISTHYFMGWYRQAPGKDREFVAGISNGSITNYADSVKGRFTISRDNARNTVYLQMNSLKPEDTAVYYGAAYDWTYVRFGYWGQGTQVTVSG	high polyreactivity
QVQLVESGGGLVQAGGSLRLSCAASGSTLGAYAMGWSRQAPGKERELVAAISRSGGNTYYADSVKGRFTISRDNAKNTVYLQMNSLKPDDTAVYYCAAVRLYRYDYWGQGTQVTVSS	low polyreactivity
QVQLVESGGGLFQAGGSLRLSCAPSGNNFYGNDMGWYRQAPGKERDLVAAISRGGSTYYADSVKGRFTSSRDNAMNTVYLQMNSLKPEDSEVFYCAADYAYTTISWDDYWGQGTLVTVSS	low polyreactivity
QVQLVESGGVLVQAGGSLRLSCAASGSTSDCYDMGWYRQAPGKEWELVAAISTGDGITYYADSVKGRFTISRDNAKNTVYLHMNRLKPEDTAVYYCAAEVELSGGSDYWGQGTQVTVSS	low polyreactivity
QVQLVESGGGLVQAGGSLRLSCAASGSIFTQYAMGWYRQAPGKEREFVARITGSGGRTYYADSVKGRFTISRDNAKNTVYLQMNSLKPEDTAVYYCAARDVRPYYVKPPVRYYYWGQGTQVTVSS	high polyreactivity
QVQLVESGGGLVQAGGSLRLSCAASGRIFQYYAMGWYRQAPGKERELVATITSTGSTYYADSVKGRFTISRDNAKNTVYLQMNSLKPEDTAVYYCNADPWGIYETFGDHDYWGQGTQVTVSS	low polyreactivity
QVQLVESGGGLVQAGGSLRLCCAASGIIFYSYAMGWYRQAPGKEREFVAAITNSDGSTYYADSVKGRFTISRDNAKNTVYLQMNSVKPEDTAVYMFYWGQGTQVTVSS	low polyreactivity
QVQLVESGGGLVQAGGSLRLSCAASGSIFFTNTMGWYRKAPGKERELVAAITSGGSTNYADSVKGRFTISRDNAKNTVYLQMNSLKPEDTAVYYCAARYQPWLKYDFDSWGQGTQVTVSS	low polyreactivity
QVQLVESGGGLVQAGGSLRLSCAASGLTIYPNAMGWYRQAPGKERELVAAITYSGDTYYADSVKGRFTISRDNAKNTVYLQMNSLKPEDTAVYYCATDVDWAYGYQYEYWGQGTQVTVSS	low polyreactivity
QVQLVESGGGLVQAGGSLRLSCAASRYTFTLYAMGWYRKAPGKEWELLAAISRSGGSTYYADSVKGRFTISRDNAKITVYLQMNSLKPEDTAVYYCAADKYFAWGYPSGLWYDYWGQGTQVTVSS	high polyreactivity
HVQLVESGGGLVQAGGSLRLSCAASGSIFIKYAMGWYRQAPGKERELVAAISRRGGSTYYADSVKGRFTISRDNAKNTVYLQMNSLKPEDTAVYYCAAVNIRFGYWGQGTQVTVSS	high polyreactivity
QVQLVESGGGLVQAGGILRLSSAASGLILPDYAMGWYRQAPGKERELVAAISEYAGSTYYADSVKGRFTISRDNAKNTVYLQMNSLKPEDTAVYYCAAEVWFYSWYFWYYDGEDYWGQGTQVTVSS	high polyreactivity
QVQLVESGGGLVQAGGSLRLSCAASGRTFFHYAMGWSRQAPGKERELVAGISSGGRTKYADSVKGRFTISRDNAKNTVYLQMNSLKPEDTAVYYCAASYIVWLTRGAPRKRFDYWGQGTQVTVSS	high polyreactivity
QVQLVESGGGLVQAGGSLRLRCGASGFIFEHYAMGWYRPAPAKERDFVAAISGSGGNKYYADSVKGRFTISRDNAKNTVYLQMNSLKPEDTAVYSCNKVDGTTLDDHYMDYWGQGTQVTVSS	low polyreactivity
QVQLVESGGCLVQAGGSLRLSCAASGNTIIRYAMGWYRQAPGKERELVAAISYSGGRTYYADSVKGRFTISRDNAKNTVYLQMNSLKPVDNAVYYCNAASRYGGDYWGQGTQVTVSS	high polyreactivity
QVQLVESGGGLVQAGGSLRLSCAASGRIFSRYAMGWYRQAPGKERELVAAINKSGGSTYYADSVKGRFTISRDNEKYTVYLQMNSLKPEDTAVDYCNAVYYWYKGDYWGQGTQVTVSS	high polyreactivity
QVQLVESGGGLVQAGGSLRLSCAASGRTSVIYAMGWYGPAPGKERELVASIRRGCSTSYADSVKGRFTISRDNAKNTVYLQMNSLKPEDTAVFYCAALLYGYYHVWRNYYWGQGTQVTVSS	high polyreactivity
QVQLVESGGGLVQAGGSLRLICAASGRTLGYNARGWYRQAPGKETELVAAISYGGGGTYYADSVKGRFTISRDNAKNTVYLQMNSLKPEDTAVYYCAKPRAFVGYNHWGQGTQVTVSS	low polyreactivity

Sequence	polyreactivity (PSR sort gate)
QVQLVESGGGLVQAGGSLRLSCAAYGSIFTGNTMGWYRQATGKERELVATISRRGGSTYYADSVKGRFTISRDNAKNTVYLQMNSLKPEDTAVYYCARGTVYLTWRNDYWGQGTQVTVSS	high polyreactivity
QVQLVESGGGLVQAGGSLRLSCSASGNIIRKYAMGWYRQAPGKEREFVAAISSSGGRTYYADSVKGRFTISRDNAKNTVYLQMNSLKPEDTAVYYCAKDPYGRLQPRPRFGYWGQGTQVTVSS	high polyreactivity
QVQLVESGGGLVQAGGSLRLSCAASGITIVNYVMGWYRQAPGKERELVAAISIGGGTYYADSVKGRFTISRDNEKNTVYLQMNSLKPEDTAVYYCNASYGGLSFYIGVYVTGYDYWGQGTQVTVSS	low polyreactivity
QVQLVESGGGLVQAGGSLRISCAASGRIFYFNGMGWYRQAPGKERELVAAITSGGSTYYADSVKGRFTISRDNAKNTVYLQMNSLKPEDTAVYYCAAQNAWWSNGRSYDYWGQGTQVTVSS	low polyreactivity
QVQLVESGGGLVQAGGSFRLSCAASGSIFDGYAMGWYRQAPGKERELVAAISSGGDSTYYADSVKGRFTISRDNAKNTVYLQMNSLKPEDTAVYYCNADSLVGHSYDYWGQGTQVTVSS	low polyreactivity
QVQLVESGGGLVQAGGSLRISCAASGIIFALYAMGWYRQAPGKERELVAAISWSGDRTYYADSVKGRFTISRDNAKNTVYLQMNSLKPEDTAVYYCAADDYTADAVQRFYYWGQGTQVTVSS	low polyreactivity
QVQLVESGGGLVQAGGSLRLSCAASGRIFVYYAMGWYRQAPGKERELVAAITSGGGSTYYADSVKGRFTISRDNAKNTVYLQMNSLKPEDTAVYYCNKGYYYPYDYWGQGTQVTVSS	high polyreactivity
QVQLVESGGGLVQAGGRLRFSCAASGNTFPHNTMGWYRKAPGKERELVSTNYADSVKGRFTISRDNAKNSVYLQMNSLKPEDTAVYYCHADGTFEYDYWGQGTQVTVSS	low polyreactivity
QVQLVESGGGLVKAGCSLRLSCAASGRIFIVNAMGWYRQAPGKERELVAAISGSGGRTYYADSVKGRFTNSRDNAKNTVYLQMNSLKPEVTAVYYCAAVLRTQPRRYDYWGQGTQVTVSS	high polyreactivity
QVQLVESGGGLVQAGGSLRLSCAASGFIFYLYAMGWYRQAPGKERELVAAISWDGGSTYYADSVKGRFTISRDNAKNTVYLQMNSLKPEDTAVYYCAADREFWWEVVYTYEYYYWGQGTQVTVSS	low polyreactivity
QVQLVESGGGLVQAGGSLRLSCAASGSIFPANAMGWYRQAPGKERELVAGISERGSSTYYAVSVKGRFTISRDNAKNTVYLQMNSLKPEDTAVYYCAADLVGRYWSSTHNWARGDYWGQVTQVTVSS	low polyreactivity
QVQLVESGGGLVQAGGSLRLSCAASGSIFILYMGWYRQAPGKERELVATISSGGSTNYADSVKGRFTISRDNAKNTVYLQMNSLKPEDTAVYYCNARGSERVDTYSLYDYWGQGTQVTVSS	low polyreactivity
QVHLEESGGGLVQAGGSLRLSSAASGFTFRSNAMGWYRQAPGKERELVAAITSRGGSTYYADSVKGRFTISRDYAINTVYLQMNSLKPEDTAVYYGAADGRSRKFDYWGQGTQVTVSS	high polyreactivity
QVQLQESGGGLVQAGGSLRLSCAVSGTIFFPLDMGWYRQAPGREREYVAAIAEGTSTYYADSVKGRFTISRDNAKNTVYPQMYSLNPEDTAVYYCAAYRSTPQQFHYWGQGTQVTVSS	high polyreactivity
QVQLVESGGGLVQAGGSLRLSCAASGSTIYPYAMGWYRQAPGKERELVASISGGGSTYYADSVKGRFTISRDNAKNTVYLQMNSLKPEDTAVYYCNAEFDLYWYRYYYWGQGTQVTVSS	high polyreactivity
QVQLVESGGGLVQAGGSLRLSCAASGGTFQQHAMGWYRKAPGTERELVAAISRSGGNTYYADSVKGRFTISRDNSKNTVYFQMNSLKPEDTAVYSCAVVSSSQYSRYTSQWKEYYWGKGTQVTVSS	low polyreactivity
QVQLVESGGGLVQAGGSLRLSCAASGRIFSFNTMGWYRQAPGKERELVAAITSSSARTYYADSVKGRFTISRDNAKNTVYLQMNSLKPEDTAVYYCAADSTLSRYDYWGQGTQVTVSS	high polyreactivity
QVQLVESGGGLVQAGGSLRLSCAASGSIFDHYARGWYRQAPGKDRELVAAISRSAGSTYYADSVKGRFTISRDHAKNTVYLQMNSLKPEDTAVYYCAADGKYYHRRPGWPIYDYWGQGTQVTVSS	high polyreactivity
PVQLVESGGGLVQAGGSLSLTCAASGSIFPYYTMRWYRPAPGKERELVATITGNGGSTYADSGKGRFTISRDNAKNTVYLQMNSLKPEDTAVYYCAVYGDSYWGAYYYSDGYWGQGTQVTVSS	low polyreactivity
QVQLVESGGGLVQAGGSLRLSCAASGRIFVYYAMGWYRQAPGKERELVAAMNAGGSTNYADSVKGRFTISRDNAKNNVYLQMYSLKPEDTAVYYCAAVRRSRYSYRGYYWGQGTQVTVSS	high polyreactivity
QVQLVESGGGLVQAGGSVRLSCAASGSIFQYNTMGWYRQAPGKDRELFADINGRGGSTYYADSVKGRFTISRDNAKNTVYLQMNSLKPEDTGVYYCNARVFGGYSKYLFIGRYYWGQGTQVTVSS	low polyreactivity
